# Results: patent US20250215097A1 (BEIJING TIANNUOJIANCHENG PHARMA TECH, published 2025)
# T1: human CCR4 (human, UniProt P51679 1-360)
# T1 construct: also called hCCR4; human CCR4+ cells
# T1 sequence: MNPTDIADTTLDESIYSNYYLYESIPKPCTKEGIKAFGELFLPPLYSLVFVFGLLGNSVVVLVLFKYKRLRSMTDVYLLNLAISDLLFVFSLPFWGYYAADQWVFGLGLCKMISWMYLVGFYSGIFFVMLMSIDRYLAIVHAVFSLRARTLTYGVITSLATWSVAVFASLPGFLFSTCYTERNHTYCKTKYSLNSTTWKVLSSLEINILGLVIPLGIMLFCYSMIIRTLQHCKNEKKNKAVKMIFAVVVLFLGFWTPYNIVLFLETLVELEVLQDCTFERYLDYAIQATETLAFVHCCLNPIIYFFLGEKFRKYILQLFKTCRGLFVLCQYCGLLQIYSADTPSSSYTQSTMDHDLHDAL
# Columns and labels:
# cynomolgus monkey CCR8 [1] = target: T2, cynomolgus monkey CCR8 (cynomolgus monkey, UniProt O97665 1-356 (rhesus entry)); assay: flow cytometry of purified Fab on cells stably expressing cynomolgus monkey CCR8
# T2 construct: Full-length, stably expressed on CHO cells; also called cynoCCR8; CHO-cynoCCR8
# Experimental: (§1) The positive clones obtained in example 1 were re-induced to express and purified to obtain a Fab antibody. The binding to cells stably expressing human CCR8, cynomolgus monkey CCR8 and human CCR4 was tested respectively, 5×10⁴ test cells were added to each well of a 96-well U-shaped plate and centrifuged to discard the supernatant, 100 μL/well of the purified Fab antibody was added and the mixture was incubated on ice for 60 minutes. After washing away the unbound primary antibody, 50 μL of a secondary antibody solution (Anti-human IgG, F(ab′)2-AF647, Jackson Immuno Research) was added to each well and the mixture was incubated on ice for 30 minutes. After washing, 50 μL of a PI/BSA solution at 5 μg/mL was added to each well and the mixture was incubated on ice for 5 minutes. Then excess secondary antibody was washed away with 0.5% BSA, the cells were resuspended by adding a PBS solution, and binding of the antibody to the cells was detected using a flow cytometer (Intellicyte iQue).
# human CCR4 = target: T1, human CCR4; assay: flow cytometry of purified Fab on cells stably expressing human CCR4
# Experimental: as §1
# human CCR8 [2] = target: T3, human CCR8 (human, UniProt P51685 1-355); assay: cell-based or functional assay
# human CCR8 [3] = target: T3, human CCR8; assay: flow cytometry on CHO-hCCR8 cells, parental chimeric antibody
# Experimental: (§2) 5×10⁴ CHO-hCCR8 or CHO-cynoCCR8 cells were added per well in a 96-well U-shaped plate and centrifuged to discard the supernatant. 100 μL of a gradiently diluted anti-CCR8 chimeric antibody was added per well and the mixture was incubated on ice for 60 minutes. After the unbound primary antibody was washed away, 50 μL, of a secondary antibody AlexaFluro647 anti-human IgG (Jackson Immuno Research #109-606-170) was added per well and the mixture was incubated on ice for 30 minutes. After the washing, 50 μL of 5 μg/mL of a Pi/BSA solution was added to each well and the mixture was incubated on ice for 5 minutes. Then excess secondary antibody was washed away with 0.5% BSA, the cells were resuspended by adding a PBS solution, and binding of the antibody to the cells was detected using a flow cytometer (BD Celesta). The fluorescence value of a PI-negative cell population was analyzed. Cell-binding curves were fitted by Graphpad Prism 7.
# cynomolgus monkey CCR8 [4] = target: T2, cynomolgus monkey CCR8; assay: flow cytometry, chimeric IgG on CHO-cynoCCR8 cells
# Experimental: (§3) 5×10⁴ CHO-hCCR8 or CHO-cynoCCR8 cells were added per well in a 96-well U-shaped plate and centrifuged to discard the supernatant, 100 μL of a gradiently diluted anti-CCR8 chimeric antibody or anti-KLH isotype control antibody was added per well and the mixture was incubated on ice for 60 minutes. After the unbound primary antibody was washed away, 50 μL of a secondary antibody AlexaFluro647 anti-human IgG (Jackson Immuno Research #109-606-170) was added per well and the mixture was incubated on ice for 30 minutes. After the washing, 50 μL of 5 μg/mL of a PI/BSA solution was added to each well and the mixture was incubated on ice for 5 minutes. Then excess secondary antibody was washed away with 0.5% BSA, the cells were resuspended by adding a PBS solution, and binding of the antibody to the cells was detected using a flow cytometer (Intellicyte iQue). The fluorescence value of a Pi-negative cell population was analyzed. Cell-binding curves were fitted by Graphpad Prism 7 (FIG. 2). The chimeric antibodies of 87D8, 102H5, 109F6, 110G2, 113B3, 139A9, 144D2, etc. all bound with high affinities to human CCR8+ cells CHO-hCCR8 and cynomolgus monkey CCR8+ cells CHO-cynoCCR8.
# human CCR8 [5] = target: T3, human CCR8; assay: flow cytometry, chimeric IgG on CHO-hCCR8 cells
# Experimental: as §3
# cynomolgus monkey CCR8 [6] = target: T2, cynomolgus monkey CCR8; assay: flow cytometry on CHO-cynoCCR8 cells, parental chimeric antibody
# Experimental: as §2
# human CCR8 [7] = target: T3, human CCR8; assay: cell-based or functional assay; remark: listed apart in the source
# human CCR8 [8] = target: T3, human CCR8; assay: cell-based or functional assay; remark: listed apart in the source
# cynomolgus monkey CCR8 [9] = target: T2, cynomolgus monkey CCR8; assay: flow cytometry on CHO-cynoCCR8 cells
# Experimental: as §2
# human CCR8 [10] = target: T3, human CCR8; assay: flow cytometry on CHO-hCCR8 cells
# Experimental: as §2
# FcγRIIIAF158 = target: T4, FcγRIIIAF158 (UniProt P08637 17-208); assay: SPR (Biacore T200), antibody captured by anti-human IgG F(ab')2 on CM5, FcγRIIIA as analyte; FcγRIIIAF158
# T4 construct: F158 allotype; also called FcγRIIIA158F
# Experimental: (§4) The affinities of the Fc function-enhanced humanized CCR8 antibodies to FcγRIIIAV158 and FcγRIIIAF158 were detected by using a surface plasmon resonance technology (SPR/Biacore T200). A coupling reagent Amine Coupling Kit (GE Healthcare BR-1000-50) was used to couple Goat Anti-Human IgG F(ab′)2 to the surface of a CM5 chip. h87D8 H2K4 e5 or h87D8 H2K4 was captured through high-affinity binding with the antibodies and then gradiently diluted FcγRIIIAV158 or FcγRIIIAF158 was injected in sequence. The binding time was set to be 120 seconds, the dissociation time was set to be 200 seconds, regeneration was performed for 30 seconds by 10 mM Glycine-HCl with the pH value of 1.75, and the flow rate was set to be […]. The measured data were fitted to obtain an equilibrium dissociation constant. The affinities of h87D8 H2K4 e5 or h87D8 H2K4 to FcγRIIIAV158 and FcγRIIIAF158 were respectively measured. […] The binding of h87D8 H2K4 e5 to FcγRIIIAV158 and FcγRIIIAF158 was stronger than that of h87D8 H2K4.
# FcγRIIIAV158 = target: T5, FcγRIIIAV158 (UniProt P08637 17-208); assay: SPR (Biacore T200), antibody captured by anti-human IgG F(ab')2 on CM5, FcγRIIIA as analyte; FcγRIIIAV158
# T5 construct: V158 allotype; also called FcγRIIIA158V
# Experimental: as §4
# T3 sequence (P51685 whole entry): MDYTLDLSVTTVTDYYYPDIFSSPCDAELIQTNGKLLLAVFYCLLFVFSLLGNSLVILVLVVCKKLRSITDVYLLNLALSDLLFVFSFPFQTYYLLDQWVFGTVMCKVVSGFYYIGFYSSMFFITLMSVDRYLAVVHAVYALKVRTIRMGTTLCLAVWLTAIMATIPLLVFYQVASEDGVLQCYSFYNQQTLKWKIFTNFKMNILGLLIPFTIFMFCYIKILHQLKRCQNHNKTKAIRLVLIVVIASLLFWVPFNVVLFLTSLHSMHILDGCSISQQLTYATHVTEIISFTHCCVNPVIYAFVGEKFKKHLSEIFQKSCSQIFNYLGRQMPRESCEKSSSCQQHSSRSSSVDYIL
# T2 sequence (O97665 other isoform, or with tags, fused parts or gaps): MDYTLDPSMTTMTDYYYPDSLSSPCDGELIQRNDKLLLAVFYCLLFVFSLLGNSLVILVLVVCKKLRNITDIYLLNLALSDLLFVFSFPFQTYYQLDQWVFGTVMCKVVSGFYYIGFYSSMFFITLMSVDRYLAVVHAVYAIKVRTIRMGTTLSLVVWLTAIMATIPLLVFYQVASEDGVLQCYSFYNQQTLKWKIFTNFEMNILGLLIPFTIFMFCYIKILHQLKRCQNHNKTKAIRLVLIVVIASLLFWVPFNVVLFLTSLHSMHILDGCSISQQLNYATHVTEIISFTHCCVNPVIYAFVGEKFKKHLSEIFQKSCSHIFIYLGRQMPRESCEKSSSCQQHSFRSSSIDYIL
# T4 sequence (P08637 17-208 limits assumed): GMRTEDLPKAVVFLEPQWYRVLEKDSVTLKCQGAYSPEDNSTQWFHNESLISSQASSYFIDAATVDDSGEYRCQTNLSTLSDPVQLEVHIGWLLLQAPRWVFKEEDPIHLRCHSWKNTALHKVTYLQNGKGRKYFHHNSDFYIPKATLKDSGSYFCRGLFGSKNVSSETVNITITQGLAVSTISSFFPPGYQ
# T5 sequence (P08637 17-208 F176V limits assumed): as the sequence (P08637 17-208 limits assumed) above, with F160V counted along it
binder,measurement,setting,value
"29A8 Fab antibody (Fab, V domains shown, detected with anti-human IgG F(ab')2; also called clone 29A8) VH: EVQLVESGGGLVQPKGSLKLSCAASGFTFNAFAMNWVRQAPGKGLEWVARIRSKSNNYATYYADSVIDRFTISRDDSQSMLYLQMNNLKTEDTAMYYCVRGKEAGAYYAMDYWGQGTSVTVSS VL: DIVMTQAAPSVPVTPGESVSISCRSSKSLLHSNGNTYLYWFLQRPGQSPQLLIYRMSNLASGVPDRFSGSGSGTAFTLRISKVEAEDVGVYYCMQHLEYPFTFGGGTKLEIK",binding result,cynomolgus monkey CCR8 [1],binds
same,binding result,human CCR4,no binding
"144D2 anti-CCR8 chimeric antibody (antibody, V domains shown) VH: EVQLVESGGGLVQPKGSLKLSCAASGFTFNAFAMNWVRQAPGKGLEWVARIRSKSNNYATYYADSVIDRFTISRDDSQSMLYLQMNNLKTEDTAMYYCVRGKEAGAYYAMDYWGQGTSVTVSS VL: DIVMTQAAPSVPVTPGESVSISCRSSKSLLHSNGNTYLYWFLQRPGQSPQLLIYRMSNLASGVPDRFSGSGSGTAFTLRISRVEAEDVGVYYCMQHLEYPLTFGAGTKLEIK","ADCC EC50 (nM), NK92-CD16A effectors, HEK293-hCCR8 targets, LDH release",human CCR8 [2],0.07 nM
same,EC50,human CCR8 [3],0.88 nM
same,EC50,cynomolgus monkey CCR8 [4],2.75 nM
same,EC50,human CCR8 [5],1.08 nM
same,EC50,cynomolgus monkey CCR8 [6],1.32 nM
"87D8 anti-CCR8 chimeric antibody (antibody, V domains shown) VH: EVQLVESGGGLVQPKGSLRLSCAASGFTFNTYAMNWVRQAPGKGLEWIARIRSKSNNYATYYADSVKDRFTISRDDSQSMLYLQMNNLKTEDTAMYYCVRGKEAGAYYAMDYWGQGTSVTVSS VL: DIVMTQAAPSVPVTPGESVSISCRSSKSLLHSNGNTYLYWFLQRPGQSPQLLIYRMSNLASGVPDRFSGSGSGTAFTLRISRVEAEDVGVYYCMQHLEYPLTFGAGTKLELK","ADCC EC50 (nM), NK92-CD16A effectors, HEK293-hCCR8 targets, LDH release",human CCR8 [2],0.1 nM
same,"ADCC maximal lysis rate, NK92-CD16A effectors, HEK293-hCCR8 targets",human CCR8 [7],33%
same,EC50,human CCR8 [3],0.57 nM
same,EC50,cynomolgus monkey CCR8 [4],1.92 nM
same,"ADCC EC50 (nM), PBMC FcγRIIIA158F/F effectors, HEK293-hCCR8 targets",human CCR8 [8],0.08 nM
same,"ADCC EC50 (nM), PBMC FcγRIIIA158V/V effectors, HEK293-hCCR8 targets",human CCR8 [8],0.05 nM
same,"ADCC maximal lysis rate, PBMC FcγRIIIA158F/F effectors, HEK293-hCCR8 targets",human CCR8 [8],68%
same,"ADCC maximal lysis rate, PBMC FcγRIIIA158V/V effectors, HEK293-hCCR8 targets",human CCR8 [8],76%
same,EC50,human CCR8 [5],0.71 nM
same,EC50,cynomolgus monkey CCR8 [6],1.78 nM
"30A7 Fab antibody (Fab, V domains shown, also called clone 30A7) VH: QVQLVESGGGLVQPKGSLKLSCAASGFTFNTYAMNWVRQAPGKGLEWVARIRSKSNYYATYYADSVKDRFTISRDDSQSMLYLQMNNLKTEDTAMYYCLRGKEAGAYYAMDYWGQGTSVTVSS VL: DIVMTQAAPSVPVTPGESVSISCRSSKSLLHSNGNTYLYWFLQRPGQSPQLLIYRMSNLASGVPDRFSGSGSGTAFTLRISRVEAEDVGVYYCMQHLEYPFTFGAGTKLEIK",binding result,cynomolgus monkey CCR8 [1],binds
same,binding result,human CCR4,no binding
"h87D8 H1K1 (antibody, human IgG1, V domains shown, Humanized; also called h87D8 VHv1+h87D8 VKv1) VH: EVQLVESGGGLVQPGGSLRLSCAASGFTFNTYAMNWVRQAPGKGLEWVARIRSKSNNYATYYADSVKGRFTISRDDSQSSLYLQMNSLRAEDTAVYYCVRGKEAGAYYAMDYWGQGTLVTVSS VL: DIVMTQSPLSLPVTPGEPASISCRSSKSLLHSNGNTYLYWFLQKPGQSPQLLIYRMSNLASGVPDRFSGSGSGTDFTLKISRVEAEDVGVYYCMQHLEYPLTFGQGTKLEIK","ADCC half-maximal effective concentration (EC50), NK92-CD16A effectors, HEK293-hCCR8 targets",human CCR8 [7],0.01 nM
same,EC50,cynomolgus monkey CCR8 [9],1.19 nM
same,EC50,human CCR8 [10],0.53 nM
"h144D2 H1K1 (antibody, human IgG1, V domains shown, Humanized; also called h144D2 VHv1+h87D8 VKv1) VH: EVQLVESGGGLVQPGGSLRLSCAASGFTFNAFAMNWVRQAPGKGLEWVARIRSKSNNYATYYADSVKGRFTISRDDSQSSLYLQMNSLRAEDTAVYYCVRGKEAGAYYAMDYWGQGTLVTVSS VL: DIVMTQSPLSLPVTPGEPASISCRSSKSLLHSNGNTYLYWFLQKPGQSPQLLIYRMSNLASGVPDRFSGSGSGTDFTLKISRVEAEDVGVYYCMQHLEYPLTFGQGTKLEIK","ADCC half-maximal effective concentration (EC50), NK92-CD16A effectors, HEK293-hCCR8 targets",human CCR8 [7],0.02 nM
same,EC50,cynomolgus monkey CCR8 [9],1.16 nM
same,EC50,human CCR8 [10],0.89 nM
"h87D8 H2K4 hIgG1 (antibody, Humanized, wild-type human IgG1 Fc; also called h87D8 VHv2+h87D8 VKv4; copies: 2 + 2) heavy: not shown light: DIVMTQSPLSLPVTPGEPASISCRSSKSLLHSNYNTYLYWFLQKPGQSPQLLIYRTSNLASGVPDRFSGSGSGTDFTLKISRVEAEDVGVYYCMQHLEYPLTFGQGTKLEIKRTVAAPSVFIFPPSDEQLKSGTASVVCLLNNFYPREAKVQWKVDNALQSGNSQESVTEQDSKDSTYSLSSTLTLSKADYEKHKVYACEVTHQGLSSPVTKSFNRGEC",EC50,cynomolgus monkey CCR8 [9],2.28 nM
same,Kd,FcγRIIIAF158,1300 nM
same,Kd,FcγRIIIAV158,861 nM
same,EC50,human CCR8 [10],0.68 nM
